Experimental data published in patent US20230126400A1 (Alector, published 2023).
Ends that are not written are not given here. * marks the point of attachment. Biotin = O=C1N[C@H]2[C@H](CS[C@H]2CCCCC(=O)*)N1

Legend:
[1] = molecular target: T1, human MS4A4A ECL1 peptide (amino acid residues 86-98) (human); experiment: array SPR
T1 construct: synthetic peptide
T1 peptide: CMASNTYGSNPIS

[2] = molecular target: T2, human MS4A6A ECL1 peptide (amino acid residues 68-85) (human); experiment: array SPR
T2 peptide: SASFSPNFTQVTSTLLNS

[3] = molecular target: T3, human MS4A6A ECL2 peptide (amino acid residues 138-185) (human); experiment: array SPR
T3 peptide: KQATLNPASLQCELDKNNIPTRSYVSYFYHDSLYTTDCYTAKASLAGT

[4] = molecular target: T4, BSA-conjugated human MS4A4A ECL2 peptide (amino acid residues 159-179) (human, conjugated to BSA (site not stated)); experiment: ELISA, supernatant
T4 construct: also called MS4A4A-ECL2 BSA conjugated peptide; BSA-MS4A4A-ELC2 peptide
T4 peptide: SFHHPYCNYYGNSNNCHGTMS

human MS4A4A [5] = molecular target: T5, human MS4A4A (human, UniProt Q96JQ5 1-239); experiment: FACS, HEK293, supernatant
cynomolgus (cyno) MS4A4A [6] = molecular target: T6, cynomolgus (cyno) MS4A4A (cynomolgus); experiment: FACS, HEK293, supernatant
T6 construct: also called cy4A; Cyno 4A

cynomolgus (cyno) MS4A4A [7] = molecular target: T6, cynomolgus (cyno) MS4A4A; experiment: flow cytometry (anti-mouse IgG Fc-APC), hybridoma supernatant on 300.19 cells transfected with cyno MS4A4A
Procedure: (§1) Flow cytometry was performed as follows. Briefly, transiently-transfected cells were labeled with LIVE/DEAD Fixable Aqua Dead Cell Stain Kit (ThermoFisher Scientific Cat#L34957) on ice for 30 minutes. […] 2×10⁵ cells were aliquoted per well in 96-well U-bottom plates and incubated with 50 μl of culture supernatant on ice for 30 minutes. […] Following this secondary incubation, the cells were again washed twice with ice-cold FACS buffer and resuspended in a final volume of 200 μl of FACS buffer. Analysis was performed on a FACS Canto system (BD Biosciences), with gates drawn to exclude dead (Aqua-positive) cells.

[8] = molecular target: T1, human MS4A4A ECL1 peptide (amino acid …); experiment: peptide ELISA
Outline: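 Free or BSA-conjugated peptides were coated at 2 or 10 […] in 0.05M carbonate buffer, pH 9.6, overnight at 4 °C, then blocked 1 h with PBS+0.5% BSA+0.05% Tween20. Antibodies were bound 30 min at room temperature with shaking. TMB was developed 5-10 min, stopped, and absorbance read at 650 nm.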

peptide 4A.3 = molecular target: T7, peptide 4A.3 (human); experiment: array SPR, peptide on streptavidin chip
T7 construct: 15-mer of human MS4A4A
T7 peptide: Biotin-CMASNTYGSNPISVY
Procedure: (§2) Epitope binding characteristics of anti-MS4A4A antibodies are determined by two complementary approaches. First, a panel of overlapping peptides derived from the extracellular loops (ECLs) of human MS4A4A (SEQ ID NO:1) and human MS4A6A (SEQ ID NO: 291) were synthesized by JPT peptides (Berlin, Germany). These peptides were 15 amino acids in length, each offset by 2 amino acids. The peptides were biotinylated on the N-terminus. […] Anti-MS4A4A antibodies of the present disclosure and commercially-available anti-MS4A4A antibodies were tested for binding to the various linear peptides by Carterra (South San Francisco, Calif., USA) using a proprietary array SPR instrument (MX-96).
(§3) The peptide library was printed onto a streptavidin-coated chip (Xantec SAD50M, Dusseldorf, Germany) using the Continuous Flow Microspotter (CFM). First, the chip was activated with 100 mM MES, pH 5.5, 100 μL EDC (133 mM final), 100 μL of S-NHS (33.3 mM final). The peptide library was immobilized onto the chip at 250 nM per peptide diluted into HBS-EP+buffer (Teknova Cat # H8022) with 1 mg/ml BSA and 1 μg/ml mouse IgG-Biotin. Following immobilization, the chip surface was deactivated with 1M ethanolamine at pH 8.5 for 10 minutes. Hybridoma supernatants and purified anti-MS4A4A antibodies were diluted in HBS-EP+buffer with 1 mg/ml BSA and injected onto the chip. Duplicate measurements for each anti-MS4A4A antibody were taken to ensure reproducibility. Binding characteristics were determined for each peptide-antibody combination, allowing the mapping of the linear peptide region each antibody interacts with.

peptide 4A.4 = molecular target: T8, peptide 4A.4 (human); experiment: array SPR, peptide on streptavidin chip
T8 construct: 15-mer of human MS4A4A
T8 peptide: Biotin-ASNTYGSNPISVYIG
Procedure: as §2, §3

peptide 4A.5 = molecular target: T9, peptide 4A.5 (human); experiment: array SPR, peptide on streptavidin chip
T9 construct: 15-mer of human MS4A4A
T9 peptide: Biotin-LAFYSFHHPYCNYYG
Procedure: as §2, §3

peptide 4A.6 = molecular target: T10, peptide 4A.6 (human); experiment: array SPR, peptide on streptavidin chip
T10 construct: 15-mer of human MS4A4A
T10 peptide: Biotin-FYSFHHPYCNYYGNS
Procedure: as §2, §3

peptide 4A.7 = molecular target: T11, peptide 4A.7 (human); experiment: array SPR, peptide on streptavidin chip
T11 construct: 15-mer of human MS4A4A
T11 peptide: Biotin-SFHHPYCNYYGNSNN
Procedure: as §2, §3

peptide 4A.8 = molecular target: T12, peptide 4A.8 (human, cysteine pairing not given here); experiment: array SPR, peptide on streptavidin chip
T12 construct: 15-mer of human MS4A4A
T12 peptide: Biotin-HHPYCNYYGNSNNCH
Procedure: as §2, §3

peptide 4A.9 = molecular target: T13, peptide 4A.9 (human, cysteine pairing not given here); experiment: array SPR, peptide on streptavidin chip
T13 construct: 15-mer of human MS4A4A
T13 peptide: Biotin-PYCNYYGNSNNCHGT
Procedure: as §2, §3

peptide 4A.10 = molecular target: T14, peptide 4A.10 (human, cysteine pairing not given here); experiment: array SPR, peptide on streptavidin chip
T14 construct: 15-mer of human MS4A4A
T14 peptide: Biotin-CNYYGNSNNCHGTMS
Procedure: as §2, §3

peptide 4A.11 = molecular target: T15, peptide 4A.11 (human); experiment: array SPR, peptide on streptavidin chip
T15 construct: 15-mer of human MS4A4A
T15 peptide: Biotin-YYGNSNNCHGTMSIL
Procedure: as §2, §3

peptide 4A.12 = molecular target: T16, peptide 4A.12 (human); experiment: array SPR, peptide on streptavidin chip
T16 construct: 15-mer of human MS4A4A
T16 peptide: Biotin-GNSNNCHGTMSILMG
Procedure: as §2, §3

peptide 4A.1 = molecular target: T17, peptide 4A.1 (human); experiment: array SPR, peptide on streptavidin chip
T17 construct: 15-mer of human MS4A4A
T17 peptide: Biotin-ITMMCMASNTYGSNP
Procedure: as §2, §3

peptide 4A.2 = molecular target: T18, peptide 4A.2 (human); experiment: array SPR, peptide on streptavidin chip
T18 construct: 15-mer of human MS4A4A
T18 peptide: Biotin-MMCMASNTYGSNPIS
Procedure: as §2, §3

[9] = molecular target: T19, human MS4A4A ECL2 peptide (amino acid residues 159-179), free (human); experiment: array SPR (Carterra MX-96), antibody captured, peptide in solution
T19 construct: synthetic peptide; also called huMS4A4A-ELC2 free-peptide
T19 peptide: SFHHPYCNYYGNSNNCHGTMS
Procedure: Binding kinetic characterization of the anti-MS4A4A antibodies to MS4A4A ECL1 and ECL2 and to MS4A6A ECL1 and ECL2 peptides was performed by Carterra (South San Francisco, Calif.) using a proprietary array Surface Plasmon Resonance (SPR) instrument (MX-96) as follows. Antibodies were captured onto a CMD500D chip (Xantec # SPMX CMD500D) using the Continous Flow Microspotter (CFM). First, the chip was activated with 100 mM MES pH 5.5, 100 μL EDC (133 mM final), 100 μL of S-NHS (33.3 mM final), for 7 minutes. […] Anti-MS4A4A hydridoma supernatant or purified anti-MS4A4A antibodies were diluted in HBS-EP+ buffer (Teknova Cat # H8022) and then printed as duplicates with a 20 minute and a 5-minute print from the same sample solution.
These were then injected on the chip for five minutes, followed by a seven-minute dissociation period at 8 uL per second in a non-regenerative kinetic series. Duplicate measurements for each anti-MS4A4A antibody were taken to ensure reproducibility. Association rates (Kon) and dissociation rates (Koff) were calculated using a single one-to-one Langmuir binding model. The equilibrium dissociation constant (KD) was calculated as the ration of Koff/Kon.

[10] = molecular target: T19, human MS4A4A ECL2 peptide (amino acid …); experiment: peptide ELISA, supernatant
human MS4A4A [11] = molecular target: T5, human MS4A4A; experiment: FACS, U937 cells, supernatant; U937 cells overexpressing h4A, ratio over parental U937; parental U937 itself scores +
Procedure: as §1, with “Positive clones identified in Example 22 above were expanded and then rescreened for specificity against U937, K562, and/or 300.19 cells stably overexpressing human MS4A4A or cyno MS4A4A and parental U937, K562, and/or 300.19 cells. These experiments were” for “Flow cytometry was”, “using supernatants from hybridoma clones which had undergone further expansion after initial selection.” for “as follows.”, “stably transfected” for “transiently-transfected”
The APC ratio was calculated for each antibody as follows. […] For cell lines overexpressing human MS4A4A (h4A) or cyno MS4A4A (cy4A), the ration was calculated by comparing the binding measured to the binding observed on the corresponding parental cell lines.

B1: anti-MS4A4A antibody 4A-23 (antibody, V domains shown)
VH: EVQLQQSGPELVKPGASVKMSCQASGYTFTDYNIHWVKQSHGKSLKWIGYINPNNDDTTFNQKFKGKATLTVNKSSSTAYMELRSLTSEDSAVYYCARSPYCYFDVWGTGTTVTVSS
VL: DIQMTQSPSSLSASLGGKVTITCKASQDINKYIVWYQHKPGKGPRLLINYTSTLQPGIPSRFSGGGSGGDYSFSISNLEPEDIATYYCLQYDNLWTFGGGTKLEIK
notes: murine hybridoma antibody
- binding result [1]: no binding (tested: 2000 nM)
- binding result [2]: no binding (tested: 2000 nM)
- binding result [3]: no binding (tested: 2000 nM)
- binding result [4]: binds
- Human 4A:parental cell ratio (human MS4A4A [5]): 1.96 ratio
- Cyno 4A:parental cell ratio (cynomolgus (cyno) MS4A4A [6]): 1.22 ratio
- binding result (cynomolgus (cyno) MS4A4A [7]): no binding

B2: anti-MS4A4A antibody 4A-21 (murine) (antibody, IgG1, V domains shown)
VH: QIQLVQSGPELKKPGETVKISCKASGYIFTSYGLSWVKQTPGKGLKWMGWINTYSGVPTYANDFKGRFAFSLETSASTTYLRINNLKNDDTATYFCARSLVDYWGQGTPLTVSS
VL: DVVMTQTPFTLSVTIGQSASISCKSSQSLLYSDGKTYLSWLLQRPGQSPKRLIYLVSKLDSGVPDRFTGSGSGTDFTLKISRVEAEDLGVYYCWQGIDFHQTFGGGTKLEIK
notes: murine hybridoma antibody, msIgG1; also called 4A-21 (msIgG1)
- binding result [8]: no binding
- Cyno 4A:parental cell ratio (cynomolgus (cyno) MS4A4A [6]): 1.31 ratio
- SPR binding signal (peptide 4A.3): -10.6
- SPR binding signal (peptide 4A.4): -7.9
- SPR binding signal (peptide 4A.5): 383
- SPR binding signal (peptide 4A.6): 486
- SPR binding signal (peptide 4A.7): 446
- SPR binding signal (peptide 4A.8): 309
- SPR binding signal (peptide 4A.9): 225
- SPR binding signal (peptide 4A.10): -4.5
- SPR binding signal (peptide 4A.11): -6.5
- SPR binding signal (peptide 4A.12): -5.2
- SPR binding signal (peptide 4A.1): -11.2
- SPR binding signal (peptide 4A.2): -11.5
- Kd [9]: 31 nM
- koff [9]: 0.0078 s⁻¹
- kon [9]: 250000 M⁻¹ s⁻¹

B3: anti-MS4A4A antibody 4A-219 (murine) (antibody, V domains shown)
VH: QVQMKQSGPGLVQPSQSLSITCTVSGFSLTSYGVHWVRQSPGKGLEWLGVIWSGGSTDYNAAFISRLSISKDNSKSQVFFKMNSLQADDTAIYYCVRLYYGYDGFAYWGQGTLVTVSS
VL: DIVMTQSHKFMSTSVGDRVSITCKASQDVSTAVAWYQQKPGQSPKLLIYSASYRYTGVPDRFTGSGSGTDFTFTISSVQAEDLAVYYCQQHYSTPLTFGAGTKLELK
notes: murine hybridoma antibody
- binding result [8]: no binding
- binding result [10]: no binding
- fold increase in MFI (human MS4A4A [11]): > 2 fold
